Measured values taken from US10442866 (BEIJING MABWORKS BIOTECH, dated 2019).
Read-outs that look alike come from different tables or passages of the source.

Legend:
[1] = target: T1, recombinant rhesus OX40-his (Sino Biological, Cat#:90846-C08H) (rhesus monkey, UniProt P43489 29-214 (human entry)); test: ELISA on coated rhesus OX40-His, OD450
T1 construct: bought protein; also called monkey OX40-his; rhOX40-his; not shown: His tag
T1 chain: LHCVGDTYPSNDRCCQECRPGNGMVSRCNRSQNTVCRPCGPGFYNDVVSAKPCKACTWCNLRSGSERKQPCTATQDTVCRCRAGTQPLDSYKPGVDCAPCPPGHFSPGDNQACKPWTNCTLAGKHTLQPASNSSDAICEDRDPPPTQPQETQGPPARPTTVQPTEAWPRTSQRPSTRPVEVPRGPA

[2] = target: T2, recombinant human OX40-his (Sino Biological, Cat#:10481-H03H) (human, UniProt P43489 29-214); test: SPR Biacore 8K, OX40-His on chip, antibody injected
T2 construct: bought protein; also called hOX40-his; not shown: His tag
T2 sequence: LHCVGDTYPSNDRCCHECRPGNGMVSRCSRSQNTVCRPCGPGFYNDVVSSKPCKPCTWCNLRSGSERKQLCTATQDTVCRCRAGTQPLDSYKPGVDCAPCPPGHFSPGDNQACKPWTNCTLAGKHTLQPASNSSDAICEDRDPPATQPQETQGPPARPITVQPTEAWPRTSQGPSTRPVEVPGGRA
Experimental: SPR assays were used to determine the binding affinity of the chimetic or humanized anti-OX40 antibodies to human OX40 with the BIAcore™ 8K instrument (GE Life Sciences). Briefly, 100-200 response units (RU) of human OX40-His protein (Sino Biological, CN, Cat#:10481-H03H, Lot no.: MA08MA3003) were coupled to CM5 biosensor chips (Cat#: BR-1005-30, GE Life Sciences), followed by blocking of un-reacted groups with 1M ethanolamine. Serially diluted antibodies at concentrations ranging from 0.3 µM to 10 µM were injected into the SPR running buffer (HBS-EP buffer, pH7.4, GE Life Sciences; US; Cat#:BR-1006-69) at 30 µL/minute. The binding capacitity was calculated with the RUs of blank controls subtracted. The association rate (k_a) and dissociation rate (k_d) were calculated using the one-to-one Langmuir binding model (BIA Evaluation Software, GE Life Sciences). The equilibrium dissociation constant K_D was calculated as the k_d/k_a ratio.

[3] = target: T2, recombinant human OX40-his (Sino …); test: ELISA on coated human OX40-his, OD450
[4] = target: T3, murine OX40-His (Crown, Cat#: E3350-B1707) (mouse, UniProt P47741 20-211); test: ELISA on coated mouse OX40-His, OD450
T3 construct: bought protein; also called mouse OX40-his; muOX40-his; not shown: His tag
T3 sequence: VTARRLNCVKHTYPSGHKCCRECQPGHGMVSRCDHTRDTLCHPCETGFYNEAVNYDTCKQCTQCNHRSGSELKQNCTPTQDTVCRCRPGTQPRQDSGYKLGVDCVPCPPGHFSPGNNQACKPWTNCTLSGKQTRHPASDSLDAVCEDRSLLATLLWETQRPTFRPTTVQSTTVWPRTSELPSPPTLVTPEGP

[5] = target: T3, murine OX40-His (Crown, Cat#: …); test: ELISA on coated mouse OX40-His, OD450; remark: listed apart in the source
[6] = target: T1, recombinant rhesus OX40-his (Sino …); test: ELISA on coated rhesus OX40-His, OD450
[7] = target: T2, recombinant human OX40-his (Sino …); test: ELISA on coated human OX40-his, OD450; remark: listed apart in the source
[8] = target: T2, recombinant human OX40-his (Sino …); test: ELISA on coated human OX40-His, OD450

B1: 68C8-VH2VL3 (antibody, human IgG1, kappa, V domains shown)
VH: QVQLVQSGAEVKKPGASVKVSCKVSGDTFTSYWITWVRQRPGKGLEWMGDIHPGSGSTNNNEKFKNRVTMTVDTSTDTAYMELSSLRSEDTAVYYCATLRPYYFVYWGQGTLVTVSS
VL: DIQMTQSPSSLSASVGDRVTITCRASQDISNYLNWYQQKPGKTVKLLIYYTSRLLSGVPSRFSGSGSGTDYTLTISSLQPEDFATYFCQQGNTLPLTFGQGTRLEIKR
notes: humanized; also called 68C8-H2L3; 68C8H2L3
[1]
  binding result: binds
[2]
  Kd: 1.96 nM
  koff: 0.000927 s⁻¹
  kon: 473000 M⁻¹ s⁻¹
[3]
  EC50 (read off the curve): ~3 ng/mL
[4]
  binding result: no binding (tested: 10000 ng/ml (log 4))

B2: 71H8-VH2VL3 (antibody, human IgG1, kappa, V domains shown)
VH: QVQLVQSGAEVKKPGASVKVSCKVSGYTFTSYWITWVRQRPGKGLEWMGDIYPGSGSTNQNEKFKSRVTMTVDTSTDTAYMELSSLRSEDTAVYYCATLRPYYFVYWGQGTLVTVSS
VL: DIQMTQSPSSLSASVGDRVTITCRASQDISNYLNWYQQKPGKTVKLLIYYTSRLLSGVPSRFSGSGSGTDYTLTISSLQPEDFATYFCQQGNTLPLTFGQGTRLEIKR
notes: humanized; also called 71H8-H2L3; 71H8H2L3
[5]
  binding result: no binding (tested: 10000 ng/ml (log 4))
[2]
  Kd: 4.57 nM
  koff: 0.00198 s⁻¹
  kon: 434000 M⁻¹ s⁻¹
[6]
  EC50 (read off the curve): ~3 ng/mL
[7]
  EC50 (read off the curve): ~7 ng/mL
[8]
  EC50 (read off the curve): ~3 ng/mL
